According to paper PMC9117670, “Structural basis for inhibition of the Cation-chloride cotransporter NKCC1 by the diuretic drug bumetanide” (Nature Communications, 2022):
Changes are numbered by the printed parent chain. Names and notes keep the numbering of the source.

B1: NKCC1iii (full-length human NKCC1 with K289N, A492E and L671C mutations) (natural protein, UniProt P55011 1-1212, looked up)
chain: MEPRPTAPSSGAPGLAGVGETPSAAALAAARVELPGTAVPSVPEDAAPASRDGGGVRDEGPAAAGDGLGRPLGPTPSQSRFQVDLVSENAGRAAAAAAAAAAAAAAAGAGAGAKQTPADGEASGESEPAKGSEEAKGRFRVNFVDPAASSSAEDSLSDAAGVGVDGPNVSFQNGGDTVLSEGSSLHSGGGGGSGHHQHYYYDTHTNTYYLRTFGHNTMDAVPRIDHYRHTAAQLGEKLLRPSLAELHDELEKEPFEDGFANGEESTPTRDAVVTYTAESKGVVKFGWINGVLVRCMLNIWGVMLFIRLSWIVGQAGIGLSVLVIMMATVVTTITGLSTSAIATNGFVRGGGAYYLISRSLGPEFGGAIGLIFAFANAVAVAMYVVGFAETVVELLKEHSILMIDEINDIRIIGAITVVILLGISVAGMEWEAKAQIVLLVILLLAIGDFVIGTFIPLESKKPKGFFGYKSEIFNENFGPDFREEETFFSVFEIFFPAATGILAGANISGDLADPQSAIPKGTLLAILITTLVYVGIAVSVGSCVVRDATGNVNDTIVTELTNCTSAACKLNFDFSSCESSPCSYGLMNNFQVMSMVSGFTPLISAGIFSATLSSALASLVSAPKIFQALCKDNIYPAFQMFAKGYGKNNEPLRGYILTFLIALGFILIAECNVIAPIISNFFLASYALINFSVFHASLAKSPGWRPAFKYYNMWISLLGAILCCIVMFVINWWAALLTYVIVLGLYIYVTYKKPDVNWGSSTQALTYLNALQHSIRLSGVEDHVKNFRPQCLVMTGAPNSRPALLHLVHDFTKNVGLMICGHVHMGPRRQAMKEMSIDQAKYQRWLIKNKMKAFYAPVHADDLREGAQYLMQAAGLGRMKPNTLVLGFKKDWLQADMRDVDMYINLFHDAFDIQYGVVVIRLKEGLDISHLQGQEELLSSQEKSPGTKDVVVSVEYSKKSDLDTSKPLSEKPITHKVEEEDGKTATQPLLKKESKGPIVPLNVADQKLLEASTQFQKKQGKNTIDVWWLFDDGGLTLLIPYLLTTKKKWKDCKIRVFIGGKINRIDHDRRAMATLLSKFRIDFSDIMVLGDINTKPKKENIIAFEEIIEPYRLHEDDKEQDIADKMKEDEPWRITDNELELYKTKTYRQIRLNELLKEHSSTANIIVMSLPVARKGAVSSALYMAWLEALSKDLPPILLVRGNHQSVLTFYS
notes: Human Na-K-2Cl cotransporter NKCC1, full length, with K289N, A492E and L671C; MBP followed by a TEV site was fused immediately before the N-terminus and removed with TEV protease before size exclusion and cryo-EM; Residues 927-1021 are not defined in the model; also called Lys289Asn/Ala492Glu/Leu671Cys NKCC1 transporter; NKCCiii; source: HEK293S GnTI-/- cells (BacMam system), purified (amylose …)
B2: NKCC1ii (full-length human NKCC1 with K289N and A492E mutations) (natural protein, UniProt P55011 1-1212, looked up)
chain: B1 chain with C671L
notes: Human Na-K-2Cl cotransporter NKCC1, full length, with K289N and A492E; MBP followed by a TEV site was fused immediately before the N-terminus and removed with TEV protease before size exclusion and cryo-EM; also called NKCCii; source: HEK293S GnTI-/- cells (BacMam system), purified (amylose resin, TEV protease, Superose 6) in digitonin; not shown: MBP, N-terminal, cleaved

Target: the molecule itself
Assay: cryo-EM structure; single-particle cryo-EM with bumetanide; low [Cl-] buffer: 20 mM HEPES pH 7.4, 50 mM Na2SO4, 25 mM K2SO4, 5 mM NaCl, 0.06% digitonin, bumetanide to 500 uM

Row | Protein | stoichiometry N
1 | B1 | 2
2 | B2 | 2
